Laboratory results as given in patent US20210246166A1 (Bayer, published 2021).
Numbered stars: 1 amine (or outer) side, 2 acyl side, 3 side chain; on linkers, the order of the positions; unused ones are H or OH. Bridge positions count the residues as written; N and C are the ends. Square brackets hold non-standard residues; d marks the D form. Ends that are not written are not given here. * marks the point of attachment. X11 = (S)‑Piperidine‑3‑carboxylic acid, O=C([C@H]1CCCN([*:1])C1)[*:2]; NH(CH2CH2O)5CH2CO = O=C(COCCOCCOCCOCCOCCN[*:1])[*:2]; PEG9 = NCCOCCOCCOCCOCCOCCOCCOCCOCCOCCC(=O)O; Benzoyl(3-COOH) = O=C(O)c1cccc(C(=O)*)c1; Benzoyl(4-COOH) = O=C(O)c1ccc(C(=O)*)cc1; Oic = O=C(O)[C@@H]1C[C@@H]2CCCC[C@@H]2N1; PEG8 = NCCOCCOCCOCCOCCOCCOCCOCCOCCC(=O)O; tBuAla = CC(C)(C)C[C@H](N)C(=O)O; Pen = CC(C)(S)[C@H](N)C(=O)O; PEG2 = NCCOCCOCCC(=O)O; Sar = CNCC(=O)O

T1: Recombinant human MASP1 enzyme (fragment corresponding to amino acids 297-699, C-terminal His Tag) (human, UniProt P48740 297-699)
T1 sequence: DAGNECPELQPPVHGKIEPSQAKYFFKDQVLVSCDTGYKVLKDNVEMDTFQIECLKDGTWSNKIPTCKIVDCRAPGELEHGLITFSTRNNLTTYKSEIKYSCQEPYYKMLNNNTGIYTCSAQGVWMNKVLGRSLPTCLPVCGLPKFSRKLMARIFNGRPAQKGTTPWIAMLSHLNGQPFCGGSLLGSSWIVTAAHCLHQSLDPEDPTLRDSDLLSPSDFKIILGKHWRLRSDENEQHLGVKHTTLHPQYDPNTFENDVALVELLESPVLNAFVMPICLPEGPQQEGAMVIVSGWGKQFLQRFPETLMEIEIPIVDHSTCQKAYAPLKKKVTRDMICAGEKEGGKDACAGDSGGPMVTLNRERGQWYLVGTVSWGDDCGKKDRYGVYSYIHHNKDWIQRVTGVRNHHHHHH

T2: Recombinant human MASP1 active protease (amino acids 297-699, C-terminal His Tag) (human, UniProt P48740 297-699)
T2 sequence: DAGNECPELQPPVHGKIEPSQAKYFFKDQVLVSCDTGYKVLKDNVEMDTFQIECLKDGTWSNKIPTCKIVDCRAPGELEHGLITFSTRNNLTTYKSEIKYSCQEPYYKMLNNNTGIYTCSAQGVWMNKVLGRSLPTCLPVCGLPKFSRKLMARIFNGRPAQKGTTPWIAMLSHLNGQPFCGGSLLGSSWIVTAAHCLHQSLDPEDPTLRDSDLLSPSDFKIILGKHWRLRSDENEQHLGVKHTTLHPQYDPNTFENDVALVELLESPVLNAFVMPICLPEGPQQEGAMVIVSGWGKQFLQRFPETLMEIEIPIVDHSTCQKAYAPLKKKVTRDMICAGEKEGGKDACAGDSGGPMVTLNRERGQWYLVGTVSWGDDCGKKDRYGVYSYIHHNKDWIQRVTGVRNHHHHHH


Experiments:
Assay in all cases: cell-based or functional assay
[1] = biological target: Recombinant human MASP2 enzyme (fragment corresponding to amino acids 297-686, C-terminal His Tag) (human, UniProt O00187 297-686)
Recombinant human MASP2 enzyme (fragment corresponding to amino acids 297-686, C-terminal His Tag), sequence (O00187 other isoform, or with tags, fused parts or gaps limits assumed): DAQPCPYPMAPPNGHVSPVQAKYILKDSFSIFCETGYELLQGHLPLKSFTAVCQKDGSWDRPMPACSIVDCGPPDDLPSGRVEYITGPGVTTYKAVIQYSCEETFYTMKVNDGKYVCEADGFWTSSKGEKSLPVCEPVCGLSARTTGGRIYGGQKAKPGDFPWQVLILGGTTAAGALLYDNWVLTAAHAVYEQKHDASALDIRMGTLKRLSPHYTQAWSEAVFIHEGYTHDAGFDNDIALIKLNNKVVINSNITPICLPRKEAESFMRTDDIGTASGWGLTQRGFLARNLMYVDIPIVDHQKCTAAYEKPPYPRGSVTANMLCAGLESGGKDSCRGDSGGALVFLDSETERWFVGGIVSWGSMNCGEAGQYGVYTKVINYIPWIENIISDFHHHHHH

[2] = biological target: T1, Recombinant human MASP1 enzyme …
[3] = biological target: T2, Recombinant human MASP1 active protease …
[4] = biological target: Recombinant human MASP2 active protease (amino acids 297-686, C-terminal His Tag) (human, UniProt O00187 297-686)
Recombinant human MASP2 active protease (amino acids 297-686, C-terminal His Tag), sequence (O00187 other isoform, or with tags, fused parts or gaps limits assumed): as above

Row | human MASP2 IC50 [1] | human MASP1 IC50 [2] | human MASP1 IC50 (FRET substrate cleavage, enzyme activity) [3] | human MASP2 IC50 (FRET substrate cleavage, enzyme activity) [4] | Binder
1 | 84 nM | 2.6 nM | – | – | [Sar]ICSRSLP[Oic]I[Pen]IPDA-OH (disulfide 3-11; N-terminus assumed; SMILES CC[C@H](C)[C@H](NC(=O)CNC)C(=O)N[C@H]1CSSC(C)(C)[C@@H](C(=O)N[C@H](C(=O)N2CCC[C@H]2C(=O)N[C@@H](CC(=O)O)C(=O)N[C@@H](C)C(=O)O)[C@@H](C)CC)NC(=O)[C@H]([C@@H](C)CC)NC(=O)[C@@H]2C[C@@H]3CCCC[C@@H]3N2C(=O)[C@@H]2CCCN2C(=O)[C@H](CC(C)C)NC(=O)[C@H](CO)NC(=O)[C@H](CCCNC(=N)N)NC(=O)[C@H](CO)NC1=O) [((N-Me)G)-IC+SRSLP-(Oic)-I-(Pen)+IPDA-OH]
2 | – | – | 18 nM | 610 nM | GICSRSLPPICIPD-OH (disulfide 3-11; also: HCl salt) [SFMI-1 HCl, GIC+SRSLPPIC+IPD-OH (HCl Salt) (Reference No 2)]
3 | 37 nM | 3.4 nM | – | – | [Sar]ICSRSLP[Oic]I[Pen]IPG[dD]-OH (disulfide 3-11; N-terminus assumed; SMILES CC[C@H](C)[C@H](NC(=O)CNC)C(=O)N[C@H]1CSSC(C)(C)[C@@H](C(=O)N[C@H](C(=O)N2CCC[C@H]2C(=O)NCC(=O)N[C@H](CC(=O)O)C(=O)O)[C@@H](C)CC)NC(=O)[C@H]([C@@H](C)CC)NC(=O)[C@@H]2C[C@@H]3CCCC[C@@H]3N2C(=O)[C@@H]2CCCN2C(=O)[C@H](CC(C)C)NC(=O)[C@H](CO)NC(=O)[C@H](CCCNC(=N)N)NC(=O)[C@H](CO)NC1=O) [((N-Me)G)-IC+SRSLP-(Oic)-I-(Pen)+IPGd-OH]
4 | 21 nM | 19.5 nM | – | – | {Benzoyl(4-COOH)}-GICSRSLP[Oic]I[Pen]IPD-OH (disulfide 3-11; SMILES CC[C@H](C)[C@H](NC(=O)CNC(=O)c1ccc(C(=O)O)cc1)C(=O)N[C@H]1CSSC(C)(C)[C@@H](C(=O)N[C@H](C(=O)N2CCC[C@H]2C(=O)N[C@@H](CC(=O)O)C(=O)O)[C@@H](C)CC)NC(=O)[C@H]([C@@H](C)CC)NC(=O)[C@@H]2C[C@@H]3CCCC[C@@H]3N2C(=O)[C@@H]2CCCN2C(=O)[C@H](CC(C)C)NC(=O)[C@H](CO)NC(=O)[C@H](CCCNC(=N)N)NC(=O)[C@H](CO)NC1=O) [(4-Carboxybenzoic acid)-GIC+SRSLP-(Oic)-I-(Pen)+IPD-OH]
5 | 31 nM | 2 nM | – | – | [Sar]ICSRS[tBuAla]PPI[Pen]IP[NH(CH2CH2O)5CH2CO]-OH (disulfide 3-11; N-terminus assumed; SMILES CC[C@H](C)[C@H](NC(=O)CNC)C(=O)N[C@H]1CSSC(C)(C)[C@@H](C(=O)N[C@H](C(=O)N2CCC[C@H]2C(=O)NCCOCCOCCOCCOCCOCC(=O)O)[C@@H](C)CC)NC(=O)[C@H]([C@@H](C)CC)NC(=O)[C@@H]2CCCN2C(=O)[C@@H]2CCCN2C(=O)[C@H](CC(C)(C)C)NC(=O)[C@H](CO)NC(=O)[C@H](CCCNC(=N)N)NC(=O)[C@H](CO)NC1=O) [((N-Me)G)-IC+SRS-((tBu)A)-PPI-(Pen)+IP-(PEG5-CH2CO2H(18 atoms))-OH]
6 | 39 nM | 2.3 nM | – | – | [Sar]ICSRS[tBuAla]PPI[Pen]IP[PEG2]-OH (disulfide 3-11; N-terminus assumed; SMILES CC[C@H](C)[C@H](NC(=O)CNC)C(=O)N[C@H]1CSSC(C)(C)[C@@H](C(=O)N[C@H](C(=O)N2CCC[C@H]2C(=O)NCCOCCOCCC(=O)O)[C@@H](C)CC)NC(=O)[C@H]([C@@H](C)CC)NC(=O)[C@@H]2CCCN2C(=O)[C@@H]2CCCN2C(=O)[C@H](CC(C)(C)C)NC(=O)[C@H](CO)NC(=O)[C@H](CCCNC(=N)N)NC(=O)[C@H](CO)NC1=O) [((N-Me)G)-IC+SRS-((tBu)A)-PPI-(Pen)+IP-(PEG1(10 atoms))-OH]
7 | – | – | 15.6 nM | 1090 nM | GICSRSLPPICIPD-OH (disulfide 3-11; also: TFA salt) [SFMI-1, GIC+SRSLPPIC+IPD-OH (Reference No 1)]
8 | 32 nM | 2.4 nM | – | – | [X11]ICSRSLP[Oic]I[Pen]IPD-OH (disulfide 3-11; N-terminus assumed; SMILES CC[C@H](C)[C@H](NC(=O)[C@H]1CCCNC1)C(=O)N[C@H]1CSSC(C)(C)[C@@H](C(=O)N[C@H](C(=O)N2CCC[C@H]2C(=O)N[C@@H](CC(=O)O)C(=O)O)[C@@H](C)CC)NC(=O)[C@H]([C@@H](C)CC)NC(=O)[C@@H]2C[C@@H]3CCCC[C@@H]3N2C(=O)[C@@H]2CCCN2C(=O)[C@H](CC(C)C)NC(=O)[C@H](CO)NC(=O)[C@H](CCCNC(=N)N)NC(=O)[C@H](CO)NC1=O) [((S)-Piperidine-3-Carboxylic Acid)-IC+SRSLP-(Oic)-I-(Pen)+IPD-OH]
9 | 120 nM | 3.2 nM | – | – | [Sar]ICSRSLP[Oic]I[Pen]IPY-OH (disulfide 3-11; N-terminus assumed; SMILES CC[C@H](C)[C@H](NC(=O)CNC)C(=O)N[C@H]1CSSC(C)(C)[C@@H](C(=O)N[C@H](C(=O)N2CCC[C@H]2C(=O)N[C@@H](Cc2ccc(O)cc2)C(=O)O)[C@@H](C)CC)NC(=O)[C@H]([C@@H](C)CC)NC(=O)[C@@H]2C[C@@H]3CCCC[C@@H]3N2C(=O)[C@@H]2CCCN2C(=O)[C@H](CC(C)C)NC(=O)[C@H](CO)NC(=O)[C@H](CCCNC(=N)N)NC(=O)[C@H](CO)NC1=O) [((N-Me)G)-IC+SRSLP-(Oic)-I-(Pen)+IPY-OH]
10 | 76 nM | 7.9 nM | – | – | [Sar]ICSRS[tBuAla]PPI[Pen]IP-{PEG8-OH} (disulfide 3-11) [((N-Me)G)-IC+SRS-((tBu)A)-PPI-(Pen)+IP-(PEG8(28 atoms))-OH]
11 | – | – | 8 nM | 390 nM | AICSRSLPPICIPD-NH2 (disulfide 3-11; also: TFA salt) [Ala-1 SFMI-1 amide, AIC+SRSLPPIC+IPD-NH2 (Reference No B)]
12 | 180 nM | 3 nM | – | – | [Sar]ICSRSLP[Oic]I[Pen]IPT-OH (disulfide 3-11; N-terminus assumed; SMILES CC[C@H](C)[C@H](NC(=O)CNC)C(=O)N[C@H]1CSSC(C)(C)[C@@H](C(=O)N[C@H](C(=O)N2CCC[C@H]2C(=O)N[C@H](C(=O)O)[C@@H](C)O)[C@@H](C)CC)NC(=O)[C@H]([C@@H](C)CC)NC(=O)[C@@H]2C[C@@H]3CCCC[C@@H]3N2C(=O)[C@@H]2CCCN2C(=O)[C@H](CC(C)C)NC(=O)[C@H](CO)NC(=O)[C@H](CCCNC(=N)N)NC(=O)[C@H](CO)NC1=O) [((N-Me)G)-IC+SRSLP-(Oic)-I-(Pen)+IPT-OH]
13 | – | – | 7.45 nM | 914 nM | AICSRSLPPICIPD-OH (disulfide 3-11; also: TFA salt) [Ala-1 SFMI-1, AIC+SRSLPPIC+IPD-OH (Reference No A)]
14 | 62 nM | 6.3 nM | – | – | [Sar]ICSRS[tBuAla]PPI[Pen]IP-{PEG9-OH} (disulfide 3-11) [((N-Me)G)-IC+SRS-((tBu)A)-PPI-(Pen)+IP-(PEG9(31 atoms))-OH]
15 | 43 nM | 58 nM | – | – | {Benzoyl(3-COOH)}-GICSRSLP[Oic]I[Pen]IPD-OH (disulfide 3-11; SMILES CC[C@H](C)[C@H](NC(=O)CNC(=O)c1cccc(C(=O)O)c1)C(=O)N[C@H]1CSSC(C)(C)[C@@H](C(=O)N[C@H](C(=O)N2CCC[C@H]2C(=O)N[C@@H](CC(=O)O)C(=O)O)[C@@H](C)CC)NC(=O)[C@H]([C@@H](C)CC)NC(=O)[C@@H]2C[C@@H]3CCCC[C@@H]3N2C(=O)[C@@H]2CCCN2C(=O)[C@H](CC(C)C)NC(=O)[C@H](CO)NC(=O)[C@H](CCCNC(=N)N)NC(=O)[C@H](CO)NC1=O) [(3-Carboxybenzoic acid)-GIC+SRSLP-(Oic)-I-(Pen)+IPD-OH]
16 | 47 nM | 2.3 nM | – | – | [Sar]ICSRS[tBuAla]PPI[Pen]IP[Sar][Sar][Sar]-OH (disulfide 3-11; N-terminus assumed; SMILES CC[C@H](C)[C@H](NC(=O)CNC)C(=O)N[C@H]1CSSC(C)(C)[C@@H](C(=O)N[C@H](C(=O)N2CCC[C@H]2C(=O)N(C)CC(=O)N(C)CC(=O)N(C)CC(=O)O)[C@@H](C)CC)NC(=O)[C@H]([C@@H](C)CC)NC(=O)[C@@H]2CCCN2C(=O)[C@@H]2CCCN2C(=O)[C@H](CC(C)(C)C)NC(=O)[C@H](CO)NC(=O)[C@H](CCCNC(=N)N)NC(=O)[C@H](CO)NC1=O) [((N-Me)G)-IC+SRS-((tBu)A)-PPI-(Pen)+IP-((N-Me)G)-((N-Me)G)-((N-Me)G)-OH]
17 | – | – | 18 nM | 610 nM | GICSRSLPPICIPD-NH2 (disulfide 3-11; also: TFA salt) [SFMI-1 amide, GIC+SRSLPPIC+IPD-NH2 (Reference No 3)]
18 | – | – | 3.6 nM | 3000 nM | AICSRSLPPICIPD-NH2 (disulfide 3-11; also: HCl salt) [Ala-1 SFMI-1 HCl amide, AIC+SRSLPPIC+IPD-NH2 (HCl Salt) (Reference No C)]
